Reference: patent publication US20170166631A1 (published 2017)
Read-outs that look alike come from different tables or passages of the source.

Legend:
Test in all cases: ELISA
[1] = target: T1, HD49 (huntingtin exon 1 protein with 49 polyQ repeats after cleavage of the GST tag; aggregation reaction) (human, UniProt P42858 1-88)
T1 chain: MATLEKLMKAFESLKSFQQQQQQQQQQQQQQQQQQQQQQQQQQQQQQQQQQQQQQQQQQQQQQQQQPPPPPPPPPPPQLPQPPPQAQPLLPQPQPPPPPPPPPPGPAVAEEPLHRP

[2] = target: T2, GST-HttExon1Q21 (recombinant huntingtin exon 1 protein with 21 polyQ repeats fused to an N-terminal GST tag) (;human, UniProt P08515 1-218 = GST; P42858 1-88)
[3] = target: T3, HD21 (huntingtin exon 1 protein with 21 polyQ repeats after cleavage of the GST tag; aggregation reaction) (human, UniProt P42858 1-88)
T3 chain: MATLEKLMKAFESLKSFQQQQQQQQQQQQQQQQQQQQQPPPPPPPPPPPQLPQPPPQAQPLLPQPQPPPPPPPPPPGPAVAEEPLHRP

[4] = target: T1, HD49 (huntingtin exon 1 protein with 49 …)
[5] = target: T2, GST-HttExon1Q21 (recombinant huntingtin …); remark: listed apart in the source
[6] = target: T3, HD21 (huntingtin exon 1 protein with 21 …)
[7] = target: T1, HD49 (huntingtin exon 1 protein with 49 …)
[8] = target: T2, GST-HttExon1Q21 (recombinant huntingtin …); remark: listed apart in the source
[9] = target: T3, HD21 (huntingtin exon 1 protein with 21 …)
[10] = target: T1, HD49 (huntingtin exon 1 protein with 49 …)
[11] = target: T2, GST-HttExon1Q21 (recombinant huntingtin …); remark: listed apart in the source
[12] = target: T3, HD21 (huntingtin exon 1 protein with 21 …)
[13] = target: T1, HD49 (huntingtin exon 1 protein with 49 …)
[14] = target: T2, GST-HttExon1Q21 (recombinant huntingtin …); remark: listed apart in the source
[15] = target: T3, HD21 (huntingtin exon 1 protein with 21 …)
[16] = target: T1, HD49 (huntingtin exon 1 protein with 49 …)
[17] = target: T2, GST-HttExon1Q21 (recombinant huntingtin …); remark: listed apart in the source
Target sequence in this assay (P08515 1-218, tags or fused parts left off): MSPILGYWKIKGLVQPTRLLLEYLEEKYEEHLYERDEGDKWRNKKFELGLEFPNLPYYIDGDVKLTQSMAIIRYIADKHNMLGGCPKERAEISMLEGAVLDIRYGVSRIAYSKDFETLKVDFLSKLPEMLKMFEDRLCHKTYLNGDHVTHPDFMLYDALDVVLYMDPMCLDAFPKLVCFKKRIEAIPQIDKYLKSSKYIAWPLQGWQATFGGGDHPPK

[18] = target: T3, HD21 (huntingtin exon 1 protein with 21 …)
[19] = target: T4, BSA-coupled synthetic peptide of the P-rich domain sequence of huntingtin exon 1 (coupled to BSA)
T4 peptide: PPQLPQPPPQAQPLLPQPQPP

B1: NI-302.11H6 (antibody, V domains shown)
VH: EVQLVQSGAVMKKPGDSVRVSCRASTYSFSTYSFTWVRQVPGQGLEWMGWISAYNGHTNYVDSFQGRLTLTTDTSASTAYMELRSLRSDDTAIYYCAAVDTTYYYYGMDVWGQGTLVTVSS
VL: QTVVTQEPTFSVSPGGTVTLTCALRFGSVSSSYYPSWFQQTPGQAPRTLIYSTNTRSSGVPARFSGSILGNKAALTIAGAQANDEADYYCVLYMGSGIGVFGGGTKLTVL
Question: With B1 as the binder, how does the EC50 [1] read?
Answer: 0.2 nM

Question: And the EC50 [2]?
Answer: 0.2 nM

Question: What about the EC50 [3] of the same binder?
Answer: 1.2 nM

Question: And the EC50 [4]?
Answer: 0.16 nM

Question: What about the EC50 [5] of the same binder?
Answer: 0.24 nM

Question: And the EC50 [6]?
Answer: 1.22 nM

B2: NI-302.46C9 (antibody, V domains shown)
VH: QVQLQESGPGLVKPSQTLSLTCTVSGASVSSGAYYWSWIRQPAGKRLEWIGRVYPTWSTNYNPSLESRVTISLDTSNNQFSLKLTSLTAADTAVYYCAREAPGDYDAAPLAYWGQGTLVTVSS
VL: DIQMTQSPSSLSASVGDRVTITCRASQYISHYLNWYRQKPGKAPQLVIYAASSLQSEVPSRFSGSGSGPEFTLTISSLQPEDFATYYCQQSYTTPRTFGQGTKLEIK
Question: For B2, which EC50 [1] is on record?
Answer: 0.05 nM

Question: What about the EC50 [2] of the same binder?
Answer: 0.07 nM

Question: And the EC50 [3]?
Answer: 0.3 nM

Question: What about the EC50 [7] of the same binder?
Answer: ~0.05 nM

Question: And the EC50 [8]?
Answer: ~0.07 nM

Question: And the EC50 [9]?
Answer: 0.3 nM

B3: NI-302.44D7 (antibody, V domains shown)
VH: EVQLVQSGGGLVQPGGSLRLSCAASGFTFSSYAMSWVRQAPGKGLEWVSGIGYSDTSTYYADSVKGRFTVSRDISKNTLYLQMNSLRAEDTAVYYCAKGTRDYYGMDVWGQGTMVTVSS
VL: QTVVTQEPSFSVSPGGTVTLTCGLSSGSVSTSYYPSWYQQTPGRAPRTLIYSTNTRSSGVPDRFSGSILGNKAALTITGAQADDESDYYCVLFMGSGIGVFGGGTRLTVL
Question: With B3 as the binder, how does the EC50 [1] read?
Answer: 10 nM

Question: And the EC50 [2]?
Answer: 5.4 nM

Question: What about the EC50 [3] of the same binder?
Answer: 11 nM

Question: What about the EC50 [10] of the same binder?
Answer: 10 nM

Question: And the EC50 [11]?
Answer: 5.4 nM

Question: What about the EC50 [12] of the same binder?
Answer: 11 nM

B4: NI-302.37C12 (antibody, V domains shown)
VH: EVQLVESGGGLVQPGGSLRLSCVASALTVTNSQMTWVRRAPGRGLEWVSVIYTSGSAYYADSVKGRFTISRDNSKNTVFLQMNSLRVEDTAVYYCAKGPSAYYYGLDLWGQGTTVTVSS
VL: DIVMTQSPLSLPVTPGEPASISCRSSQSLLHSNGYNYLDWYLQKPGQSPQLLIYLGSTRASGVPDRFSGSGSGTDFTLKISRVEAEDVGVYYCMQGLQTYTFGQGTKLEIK
Question: Which EC50 [1] does the source give for B4 here?
Answer: 4.9 nM

Question: What about the EC50 [2] of the same binder?
Answer: 0.33 nM

Question: And the EC50 [3]?
Answer: 2.5 nM

Question: And the EC50 [10]?
Answer: 4.9 nM

Question: What about the EC50 [11] of the same binder?
Answer: 0.3 nM

Question: What about the EC50 [12] of the same binder?
Answer: 2.5 nM

B5: NI-302.22H9 (antibody, V domains shown)
VH: EVQLVESGGGLVHPWGSLRVSCAASGFSVSNYAITWVRQAPGKGLEYISVIYRDGRTYYGDSVRGRFTISRDDSKNTIYLQMNSLRFEDTAVYYCARAHGQYYYGVDVWGQGTTVTVSS
VL: DVVMTQSPLSLSVSPGEPASISCRSSQSLLHSNGYNYLDWYRQKPGQSPQLLIYLNSNRASGVPDRFSGSGSGTEFTLTISRVEAEDVGVYYCMQSLQTFTFGGGTKVEIK
Question: Which results are given for B5?
Answer: EC50 [1]: 22 nM; EC50 [2]: 1.6 nM; EC50 [3]: 11 nM; EC50 [10]: 21 nM; EC50 [11]: 1.6 nM; EC50 [12]: 11 nM

B6: NI-302.7A8 (antibody, V domains shown)
VH: EVQLVESGGGSVQPGGSLRLSCVASGFIFRNSWMTWVRQDPGKGLEWVANIKEDGSRTYYVDSVKGRFTISRDNAKNSLYLQMNSLRAEDTAVYYCARGDYNSGIYYFPGDYWGQGTLVTVSS
VL: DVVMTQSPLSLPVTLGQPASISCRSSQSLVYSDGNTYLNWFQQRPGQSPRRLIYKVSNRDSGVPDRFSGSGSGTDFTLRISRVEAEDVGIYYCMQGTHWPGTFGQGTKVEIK
Question: For B6, which EC50 [1] is on record?
Answer: 1.5 nM

Question: And the EC50 [2]?
Answer: 0.2 nM

Question: And the EC50 [3]?
Answer: 0.4 nM

Question: What about the EC50 [13] of the same binder?
Answer: 1.5 nM

Question: What about the EC50 [14] of the same binder?
Answer: 0.2 nM

Question: And the EC50 [15]?
Answer: 0.4 nM

B7: NI-302.2A2 (antibody, V domains shown)
VH: EVQLVESGGGLVQPGGSLRLSCAASGFTFSTYWMNWVRQAPGKGLEWVANIKPDGSDKYYVDSVKGRFTISRDNAKNSLYLQMNSLRDEDTAVYYCARGDGSGWNVYWGQGTLVTVSS
VL: DIQMTQSPDSLAVSLGERATINCKSSQSLLYTSKNKDSKNYLGWYQQKPGQPPKLLIYWASTRESGVPDRFSGSGSGTDFTLTISSLQAEDVAVYYCQQYYTTPQFGGGTKVEIK
Question: Which EC50 [7] does the source give for B7 here?
Answer: ~100 nM

Question: What about the EC50 [8] of the same binder?
Answer: 10.1 nM

Question: And the EC50 [9]?
Answer: 12.3 nM

Question: And the EC50 [16]?
Answer: > 100 nM

Question: And the EC50 [17]?
Answer: 10.1 nM

Question: And the EC50 [18]?
Answer: 12.3 nM

Question: What about the EC50 [19] of the same binder?
Answer: 1.4 nM

B8: NI-302.71F6 (antibody, V domains shown)
VH: QVQLQQWGAGLLKPSETLSLTCAVYGGSLSGYYWSWIRQPPGKGLEWIGEVNHSGGTNLNSSLKSRVIISVDKSKKQFSLKLSSVTAADTAMYFCARGYSYDPKYYFDSWSQGTLVTVSS
VL: QSALTQPASVSGSPGQAITISCTGTSSDIGSYDFVSWYQQDPGKAPKVIIYGVNKRPSGVSNRFSGSKSGNTASLTISGLQADDEADYYCCSYAGSTTWVFGGGTKLTVL
Question: How did the EC50 [1] turn out when B8 was run?
Answer: 4.4 nM

Question: What about the EC50 [2] of the same binder?
Answer: 3 nM

Question: And the EC50 [3]?
Answer: 7.6 nM

Question: And the EC50 [4]?
Answer: 4.4 nM

Question: And the EC50 [5]?
Answer: 3 nM

Question: What about the EC50 [6] of the same binder?
Answer: 7.6 nM

B9: NI-302.15D3 (antibody, V domains shown)
VH: EVQLVESGGDLVQPGGSLRLSCAASGFTFSSYWMHWVRQAPGKGLVWVSRISNDGSSKTYADSVKGRFTISRDNAKNTLYLQMNSLRAEDTAVYYCAILGGYCSSTSCRPFDNWGQGTLVTVSS
VL: QSALTQPASVSGSPGQSITISCTGTSSDVGVYNYVSWYQQHPGKAPKLMIFDVSNRPSGISNRFSGSKSGNTASLTISGLQAEDEADYYCSSYTSSDTWVFGGGTKLTIL
Question: How did the EC50 [7] turn out when B9 was run?
Answer: 15 nM

Question: And the EC50 [8]?
Answer: 4.2 nM

Question: And the EC50 [9]?
Answer: 6.4 nM

Question: And the EC50 [16]?
Answer: 15 nM

Question: And the EC50 [17]?
Answer: 4.2 nM

Question: What about the EC50 [18] of the same binder?
Answer: 6.4 nM

Question: What about the EC50 [19] of the same binder?
Answer: 1.2 nM

B10: NI-302.3D8 (antibody, V domains shown)
VH: EVQLVQSGGGLVQPGGSLRLSCEASGFIFKTYAMSWVRQLPGRGLEWVSAISATGGSTFYAESVKGRLTISRDTAKNTVYLQMNNLRAEDTAMYYCAKGSTAVYLFDSWGQGTLVTVSS
VL: DIQMTQSPSSLSASVGDRVTLTCRASQDIRNFLAWIQQKPGKPPKSLIYAASTLQSGVPSRFSGSGSGTDFTLTISSLHPEDFATYYCQQFYNYPPTFGQGTKVEIK
Question: With B10 as the binder, how does the EC50 [1] read?
Answer: 0.03 nM

Question: What about the EC50 [2] of the same binder?
Answer: 0.05 nM

Question: And the EC50 [3]?
Answer: 0.02 nM

Question: What about the EC50 [4] of the same binder?
Answer: 0.03 nM

Question: And the EC50 [5]?
Answer: 0.05 nM

Question: What about the EC50 [6] of the same binder?
Answer: 0.02 nM

B11: NI-302.78H12 (antibody, V domains shown)
VH: QVQLQESGPGLVKPSETLSLTCLVSSYSISNGYYWGWIRQPPGKGLEWIGSIYHNGNTYYNPSLKSRVIISVDTSKNQFSLKLRSVTAADTAVYYCAMPSATYYYGSGTQFHAFDVWGQGTTVTVSS
VL: QSALTQPRSVSGSPGQSVTISCTGTSRDVGNYNYVSWYQQHPGEVPKLIIYDVSERPSGVPDRFSGSKSGNTASLTISGLQAEDEADYYCCSYAGSYTFEVFGGGTKLTVL
Question: Which results are given for B11?
Answer: EC50 [1]: 1.6 nM; EC50 [2]: 0.5 nM; EC50 [3]: 1.1 nM; EC50 [13]: 1.6 nM; EC50 [14]: 0.5 nM; EC50 [15]: 1.1 nM
